Here are results for 1 molecule from patent US12247244B2, “Membrane protein activity measurement method” (THE UNIVERSITY OF TOKYO, priority 2018, dated 2025).

The test concerns the target T1, human Flt3 (hFlt3) (Homo sapiens, UniProt P36888).
T1 construct: expressed in transfected cells; host or cells: NCP19 cells (HeLa-derived knock-in clone)
T1 sequence (P36888 27-993): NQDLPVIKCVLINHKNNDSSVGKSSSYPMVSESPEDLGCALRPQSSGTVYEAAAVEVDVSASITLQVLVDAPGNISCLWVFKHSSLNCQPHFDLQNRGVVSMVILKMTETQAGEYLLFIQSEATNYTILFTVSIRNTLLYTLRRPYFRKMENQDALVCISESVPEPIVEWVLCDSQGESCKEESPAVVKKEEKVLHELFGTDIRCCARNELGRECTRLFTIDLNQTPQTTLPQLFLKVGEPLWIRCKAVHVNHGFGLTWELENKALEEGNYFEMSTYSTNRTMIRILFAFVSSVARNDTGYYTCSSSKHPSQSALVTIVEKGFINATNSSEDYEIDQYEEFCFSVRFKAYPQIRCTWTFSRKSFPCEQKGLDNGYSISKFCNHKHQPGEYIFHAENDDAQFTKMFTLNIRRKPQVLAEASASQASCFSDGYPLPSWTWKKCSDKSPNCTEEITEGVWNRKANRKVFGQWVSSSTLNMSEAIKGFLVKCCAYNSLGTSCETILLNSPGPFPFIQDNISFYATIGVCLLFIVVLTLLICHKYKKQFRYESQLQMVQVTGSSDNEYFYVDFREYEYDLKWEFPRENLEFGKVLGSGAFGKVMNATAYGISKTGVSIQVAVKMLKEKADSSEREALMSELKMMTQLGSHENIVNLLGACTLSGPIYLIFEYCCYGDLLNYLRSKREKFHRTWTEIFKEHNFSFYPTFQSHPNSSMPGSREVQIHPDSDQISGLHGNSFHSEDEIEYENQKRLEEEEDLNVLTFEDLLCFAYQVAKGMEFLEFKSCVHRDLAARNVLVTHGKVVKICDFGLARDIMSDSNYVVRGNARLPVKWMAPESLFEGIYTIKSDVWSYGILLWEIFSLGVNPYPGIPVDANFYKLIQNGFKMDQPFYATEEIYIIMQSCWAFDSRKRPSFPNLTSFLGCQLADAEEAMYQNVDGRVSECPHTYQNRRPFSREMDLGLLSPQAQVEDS
Nature of the test: NCP19 knock-in reporter cell assay (UAS-luciferase) for hFlt3 activation. In kind it is cell-based. Conditions: NCP19 cells transfected with hFlt3; ligand 30, 3, 0.3, 0.03, 0 ng/ml; stimulation for 6 hours; FIG. 12. On the procedure:
• Used cells: NCP19 • Used plasmids: • (1) a plasmid that expresses hFlt3 (an hFlt3 expression plasmid); and • (2) UAS-luciferase. • Day 1: NCP19 cells were seeded on a 96-well plate at a density of 24000 cells/well. • Day 2: Within 24 hours after the seeding on the 96-well plate, 90 ng of DNA per well (a plasmid cocktail consisting of 60 ng of hFlt3+30 ng of UAS-luciferase) was transfected into the cells according to a lipofection method. • Day 3: Twenty-four hours after the transfection, the cells were stimulated by a ligand (Flt3-ligand: at concentrations of 30, 3, 0.3, 0.03, and 0 ng/ml). After the stimulation for 6 hours, a culture supernatant was discarded, and a substrate for luciferase was added, and then, luminescence signals were measured using a plate reader.

B1: Flt3-ligand: ligand used to stimulate the receptor tyrosine kinase hFlt3 (protein)
chain: TQDCSFQHSPISSDFAVKIRELSDYLLQDYPVTVASNLQDEELCGGLWRLVLAQRWMERLKTVAGSKMQGLLERVNTEIHFVTKCAFQPPPSCLRFVQTNISRLLQETSEQLVALKPWITRQNFSRCLELQCQPDSSTLPPPWSPRPLEATAPTA
For the molecule B1, the “activation of hFlt3, luminescence of luciferase” value is given as “detected as the luminescence of luciferase”.
